The text below walks through data of the supplement of paper PMC6379048.

Holding throughout (assay): Kd (EC50 corrected by depletion factor)
One series addresses T1, FUBP3 (UniProt Q96I24).
T1 sequence: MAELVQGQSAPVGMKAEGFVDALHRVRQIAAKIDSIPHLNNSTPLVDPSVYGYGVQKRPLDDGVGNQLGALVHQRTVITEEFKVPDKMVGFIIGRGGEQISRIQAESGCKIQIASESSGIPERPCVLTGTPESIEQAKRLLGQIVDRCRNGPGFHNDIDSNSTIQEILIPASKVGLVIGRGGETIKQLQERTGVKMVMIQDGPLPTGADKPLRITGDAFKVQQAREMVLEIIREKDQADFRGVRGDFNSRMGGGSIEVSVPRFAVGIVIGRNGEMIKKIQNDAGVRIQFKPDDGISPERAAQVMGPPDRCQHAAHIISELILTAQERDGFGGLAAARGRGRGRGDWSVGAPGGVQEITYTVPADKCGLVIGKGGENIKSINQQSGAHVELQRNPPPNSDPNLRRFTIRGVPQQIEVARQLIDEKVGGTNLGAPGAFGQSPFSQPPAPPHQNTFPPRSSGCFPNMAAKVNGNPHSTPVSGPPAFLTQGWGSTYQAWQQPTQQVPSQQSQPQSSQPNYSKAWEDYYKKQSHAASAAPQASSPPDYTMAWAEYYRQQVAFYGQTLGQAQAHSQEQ
The method in brief: (§1)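 Kd was calculated as EC50, taken from a four-parameter log-logistic fit, multiplied by a protein-dependent depletion factor. The assay used HEK293-FT lysate (2.5 mg protein/well) pre-incubated for 1 h at 4°C with free RNA oligos (0 nM to 30 μM), then incubated for 30 min at 4°C with the matching oligos bound through a 5′-amino-C6 linker to NHS-Sepharose beads. Bound proteins were measured by label-free LC-MS/MS and normalised to the control.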

Another series addresses T2, LSM4 (UniProt Q9Y4Z0).
T2 sequence: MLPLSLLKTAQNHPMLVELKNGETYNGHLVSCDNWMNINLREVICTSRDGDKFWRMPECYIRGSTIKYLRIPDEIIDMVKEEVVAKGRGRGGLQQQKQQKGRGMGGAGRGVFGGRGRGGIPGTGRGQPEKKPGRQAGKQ
The method in brief: as §1

A further series deals with T3, MEX3B (UniProt Q6ZN04).
T3 sequence: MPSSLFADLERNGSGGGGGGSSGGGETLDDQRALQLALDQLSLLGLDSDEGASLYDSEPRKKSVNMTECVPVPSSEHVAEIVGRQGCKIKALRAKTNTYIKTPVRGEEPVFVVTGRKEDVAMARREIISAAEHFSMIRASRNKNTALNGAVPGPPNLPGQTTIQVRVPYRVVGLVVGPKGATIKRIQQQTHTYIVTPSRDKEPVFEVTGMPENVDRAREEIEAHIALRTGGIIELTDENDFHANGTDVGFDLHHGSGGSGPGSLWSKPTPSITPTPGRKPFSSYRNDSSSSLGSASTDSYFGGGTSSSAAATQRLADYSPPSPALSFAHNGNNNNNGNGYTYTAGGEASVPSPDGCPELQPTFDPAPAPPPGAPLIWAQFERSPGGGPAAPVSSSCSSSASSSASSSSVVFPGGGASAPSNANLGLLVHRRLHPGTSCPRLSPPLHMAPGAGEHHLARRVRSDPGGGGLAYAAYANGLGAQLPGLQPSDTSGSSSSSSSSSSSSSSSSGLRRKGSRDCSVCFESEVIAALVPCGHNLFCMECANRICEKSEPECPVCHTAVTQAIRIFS
The method in brief: as §1

For the next series, the target named is MSI1 (UniProt O43347). A digest of the protocol: as §1
For another series, the target named is PABPC1 (UniProt P11940). The method in brief:
as §1

For the next series, the target named is T4, RBM7 (UniProt Q9Y580).
T4 sequence: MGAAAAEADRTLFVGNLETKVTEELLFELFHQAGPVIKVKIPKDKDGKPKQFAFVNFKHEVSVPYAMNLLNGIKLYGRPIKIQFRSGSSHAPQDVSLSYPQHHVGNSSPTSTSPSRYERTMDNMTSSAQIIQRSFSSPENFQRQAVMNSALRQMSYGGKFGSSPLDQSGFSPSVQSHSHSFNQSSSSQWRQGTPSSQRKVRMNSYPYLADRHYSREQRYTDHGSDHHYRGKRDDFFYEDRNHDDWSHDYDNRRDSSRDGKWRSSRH
A digest of the protocol:
as §1

The target of a further series is RPS20 (UniProt P60866). A digest of the protocol:
as §1

In the next series the target is T5, ZNF830 (UniProt Q96NB3).
T5 sequence: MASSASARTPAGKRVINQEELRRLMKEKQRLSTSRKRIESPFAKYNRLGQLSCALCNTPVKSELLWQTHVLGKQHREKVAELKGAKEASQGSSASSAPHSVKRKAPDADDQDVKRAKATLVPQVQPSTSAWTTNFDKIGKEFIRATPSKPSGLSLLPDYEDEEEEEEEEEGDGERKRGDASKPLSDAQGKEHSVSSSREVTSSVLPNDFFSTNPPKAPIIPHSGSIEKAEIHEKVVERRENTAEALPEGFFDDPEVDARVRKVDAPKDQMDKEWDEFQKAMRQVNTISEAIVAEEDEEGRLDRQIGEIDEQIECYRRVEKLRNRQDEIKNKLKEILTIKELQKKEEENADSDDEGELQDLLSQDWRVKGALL
The method in brief: as §1

In a further series the target is NCL (UniProt P19338). A digest of the protocol: as §1
Chain of NCL (P19338 whole entry): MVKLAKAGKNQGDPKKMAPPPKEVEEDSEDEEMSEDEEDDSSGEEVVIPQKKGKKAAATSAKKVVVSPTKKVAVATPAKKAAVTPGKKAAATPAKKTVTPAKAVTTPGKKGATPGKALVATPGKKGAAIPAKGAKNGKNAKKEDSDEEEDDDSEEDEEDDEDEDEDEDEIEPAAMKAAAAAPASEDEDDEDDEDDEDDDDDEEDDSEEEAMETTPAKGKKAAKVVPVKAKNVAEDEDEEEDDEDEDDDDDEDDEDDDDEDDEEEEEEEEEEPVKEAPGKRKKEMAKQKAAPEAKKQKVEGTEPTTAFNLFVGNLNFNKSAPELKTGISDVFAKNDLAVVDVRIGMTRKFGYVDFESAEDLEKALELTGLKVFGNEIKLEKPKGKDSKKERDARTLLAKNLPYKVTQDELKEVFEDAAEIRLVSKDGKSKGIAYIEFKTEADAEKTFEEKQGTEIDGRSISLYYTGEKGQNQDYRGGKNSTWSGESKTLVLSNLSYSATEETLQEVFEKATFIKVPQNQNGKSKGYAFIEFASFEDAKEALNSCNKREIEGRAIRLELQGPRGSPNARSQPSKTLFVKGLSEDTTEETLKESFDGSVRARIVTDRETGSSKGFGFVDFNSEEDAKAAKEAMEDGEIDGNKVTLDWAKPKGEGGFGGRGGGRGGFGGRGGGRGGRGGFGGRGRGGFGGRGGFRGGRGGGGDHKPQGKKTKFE

Chain of MSI1 (O43347 whole entry): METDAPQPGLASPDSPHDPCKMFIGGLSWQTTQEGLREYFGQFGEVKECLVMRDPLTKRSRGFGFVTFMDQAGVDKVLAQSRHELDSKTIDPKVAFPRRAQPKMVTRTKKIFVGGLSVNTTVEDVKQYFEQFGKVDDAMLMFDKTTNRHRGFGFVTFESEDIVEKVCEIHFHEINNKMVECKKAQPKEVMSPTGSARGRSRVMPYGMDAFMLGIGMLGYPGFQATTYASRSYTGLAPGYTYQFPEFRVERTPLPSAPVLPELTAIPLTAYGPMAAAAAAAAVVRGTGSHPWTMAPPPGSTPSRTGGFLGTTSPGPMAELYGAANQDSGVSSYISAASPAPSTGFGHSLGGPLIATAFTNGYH
Chain of PABPC1 (P11940 whole entry): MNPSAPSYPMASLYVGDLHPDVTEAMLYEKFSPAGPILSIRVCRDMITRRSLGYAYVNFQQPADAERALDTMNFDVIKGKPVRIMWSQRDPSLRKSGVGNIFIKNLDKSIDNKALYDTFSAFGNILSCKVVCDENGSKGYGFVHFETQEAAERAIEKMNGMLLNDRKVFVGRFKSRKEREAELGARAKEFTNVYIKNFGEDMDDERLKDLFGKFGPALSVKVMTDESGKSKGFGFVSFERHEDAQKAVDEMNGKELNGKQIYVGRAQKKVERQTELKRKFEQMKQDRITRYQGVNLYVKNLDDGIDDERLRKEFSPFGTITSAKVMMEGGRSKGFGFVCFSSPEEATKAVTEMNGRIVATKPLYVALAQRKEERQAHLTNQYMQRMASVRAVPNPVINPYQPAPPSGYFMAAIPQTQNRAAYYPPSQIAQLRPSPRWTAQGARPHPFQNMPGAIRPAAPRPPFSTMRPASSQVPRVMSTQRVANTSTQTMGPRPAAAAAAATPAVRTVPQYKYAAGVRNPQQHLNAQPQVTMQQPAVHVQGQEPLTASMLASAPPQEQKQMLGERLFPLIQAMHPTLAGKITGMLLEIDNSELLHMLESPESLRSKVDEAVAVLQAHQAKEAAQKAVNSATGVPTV

As usually defined, the Kd is the constant that tells how readily two partners part at equilibrium. Turning to AAUAAA, the Kd was found to be 245 nM with FUBP3; 70.5 nM in the series with LSM4; 327 nM with MEX3B; 3110 nM in the series with MSI1; 7490 nM in the series with PABPC1; 156 nM with RBM7. Also, the equilibrium dissociation constant (Kd) came to 2300 nM in the series with RPS20 and 379 nM in the series with ZNF830.

For the sequence CUGUCCU, the Kd in the series with NCL came to 86.8 nM; with PABPC1, 95.9 nM; in the series with RPS20, 59.8 nM.

On to UAUUUAU, for which the Kd in the series with FUBP3 was 241 nM; with LSM4, 241 nM; in the series with MEX3B, 220 nM; in the series with MSI1, 373 nM; in the series with NCL it was 1770 nM; in the series with RBM7, 81.2 nM. In addition, the Kd in the series with ZNF830 is 228 nM.
